# Where no end group is shown, it is not given here.
# What was measured:
# [1] = test system: acute mouse hippocampal slices, CA3-CA1 Schaffer collateral (SC) synapses; test: Ex vivo fEPSP short-term facilitation in acute hippocampal slices (multi-electrode array); type: cell-based
# Method: The effect of a selection of GABABR1a-SD1 binders on synaptic transmission was tested in an ex vivo experiment using acute mouse hippocampal slices comprising an intact circuit of CA3-CA1 Schaffer collateral (SC) synapses. In short, a burst of 5 stimuli at 20 Hz was applied to Schaffer collaterals to induce short-term facilitation, which inversely correlates with the probability of neurotransmitter release.
# Recordings were done in C57BL/6J mice (2 months old). For tissue preparation, mice were anesthetized with isoflurane and rapidly decapitated to prepare acute 300 μm-thick parasagittal brain slices on a Leica VT1200 vibratome. Slicing was performed in cold sucrose based cutting solution (ACSF) that consisted of (in mM): 87 NaCl, 2.5 KCl, 1.25 NaH2PO4, 10 glucose, 25 NaHCO3, 0.5 CaCl2, 7 MgCl2, 75 sucrose, 1 kynurenic acid, 5 ascorbic acid, 3 pyruvic acid (pH 7.4 with 5% CO2/95% O2). Slices were allowed to recover at 34° C. for 35 min, and subsequently maintained at room temperature for at least 30 min before use. Before recordings, slices were preincubated in artificial cerebrospinal fluid (ACSF, 119 mM NaCl, 2.5 mM KCl, 1 mM NaH2PO4, 11 mM glucose, 26 mM NaHCO3, 4 mM MgCl2 and 4 mM CaCl2, pH 7.4) containing peptide of interest or scrambled/control peptide (1 or 10 uM). Preincubation was performed in the multielectrode array recording chamber (60MEA200/30iR-Ti-gr, Multichannel Systems) for 60 min at 32° C., using custom-made local carbogenation rings (5% CO2/95% 02). Field excitatory post-synaptic potentials (fEPSPs) were recorded from Schaffer collateral-CA1 synapses by stimulating and recording from the appropriate (visually identified) electrodes (MEA-2100, Multichannel Systems). Input-output curves were recorded for each slice by applying single-stimuli ranging from 500 to 2750 mV with 250 mV increments. […] Train stimulations of 10, 20 and 50 Hz (5 stimuli per train) were recorded with 10 minutes intervals. Recordings were processed and analysed using Multi Channel Experimenter software (Multi Channel Systems).
# [2] = target: GABABR1b expressed on cells (UniProt Q9UBS5-2 30-474, limits assumed); test: cell-based binding assay, flow cytometry
# [3] = target: T1, Sushi domain 1 of the human GABA B1a receptor (human, UniProt Q9UBS5 26-96); test: FP competition vs FITC-9mer on purified SD1; 17-mer
# T1 construct: Purified recombinant protein from E. coli; also called SD1; GABABR1a-SD1
# Method: Intrigued by the surprising results of the 5-mer, it was decided to set up a medium- to high-throughput screen to optimize the 5-mer sequence. Several assays were tested to find a reproducible, robust and cost-effective assay that is also suitable for high-throughput screening. A fluorescence polarization (FP) assay was selected. FP measurements are well-known for receptor binding assays. The assay is based on the rotational movement of fluorescently labelled molecules in solution. […] The FP assay was optimized using the FITC labelled sAPP 9-mer (FIG. 1).
# (§1) To screen for GABABR1a binders using unlabelled test compounds, the assay was turned into a competition assay using FITC-9mer. […] To validate this inhibitor assay, the IC50 values were determined of the 17-mer, 9-mer, 5-mer as well as those from 3 negative controls: 10-mer, scrambled 17-mer and a scrambled 9-mer (FIG. 2).
# [4] = target: T1, Sushi domain 1 of the human GABA B1a …; test: FP competition vs FITC-9mer on purified SD1; 9-mer
# Method: as §1
# To determine if the peptides of this application were able to disrupt the SD1-9-mer complex, each peptide (in single point or dose-response curve) tested was incubate with SD1 protein for 1 h at RT. After this initially incubation, FITC-9mer was added to the previous mix and incubated during 2 h at RT. The signal intensity was measure in an appropriate plate reader using the following settings: Number of flashes per well: 200; Excitation: F482-16; Dichroic filter: FLP 504; Emission A F530-40; Gain A: 738, Gain B: 736. The assay was conducted in a 384-well plate.
# [5] = target: T1, Sushi domain 1 of the human GABA B1a …; test: ITC, peptide titrated into purified SD1
# Method: First, we wondered whether the wild-type sAPP 9-mer peptide would be the optimal sequence in terms of SD1 binding or whether sequence variants of the sAPP 9-mer would have improved binding to the GABABR1a-SD1. Therefore a panel of single and double sAPP 9-mer mutants was generated. An alanine scan was performed for the residues on position 1 to position 7. Based on an ITC assay, these single mutant peptides bound the SD1 with the same or slightly higher Kd (Table 1). Also the double mutants VIB_P04, VIB_P05 and VIB_P19 bound with a similar Kd to SD1 compared to the wild-type 9-mer. We have also tested the effect of the D-isomer of the amino residues on position 1 to 4, in single or multiple combinations. None of the mutations had strong effects on the measured Kd (Table 1). We therefore conclude that the wild-type sAPP 9-mer is already optimized but that many variants bind as good to SD1 and thus will modulate GABABR1a in a similar manner.
# The Sushi-1 protein was dialysed overnight to PBS buffer and diluted to 30 μM in the same buffer. The peptides were resuspended in PBS at a stock concentration of 3 mM and diluted further in the same buffer to 300 μM. ITC experiments were performed on a Microcal ITC200 device. Titrations comprised 26×1.5 μL injections of peptide into protein, with 90 s intervals. An initial injection of ligand (0.5 μL) was made and discarded during data analysis. The data were fitted to a single binding site model using the Microcal LLC ITC₂₀₀. Original software provided by the manufacturer.
# [6] = target: T1, Sushi domain 1 of the human GABA B1a …; test: fluorescence polarization, SD1 titrated against 0.05 µM FITC-9mer; concentration is that of SD1
# [7] = target: T1, Sushi domain 1 of the human GABA B1a …; test: fluorescence polarization, SD1 titrated against 11.11 µM FITC-9mer; concentration is that of SD1
# [8] = target: T1, Sushi domain 1 of the human GABA B1a …; test: fluorescence polarization, SD1 titrated against 0.14 µM FITC-9mer; concentration is that of SD1
# [9] = target: T1, Sushi domain 1 of the human GABA B1a …; test: fluorescence polarization, SD1 titrated against 3.7 µM FITC-9mer; concentration is that of SD1
# [10] = target: T1, Sushi domain 1 of the human GABA B1a …; test: fluorescence polarization, SD1 titrated against 1.2 µM FITC-9mer; concentration is that of SD1
# [11] = target: T1, Sushi domain 1 of the human GABA B1a …; test: fluorescence polarization, SD1 titrated against 0.41 µM FITC-9mer; concentration is that of SD1
# T1 sequence (Q9UBS5 26-96 limits assumed): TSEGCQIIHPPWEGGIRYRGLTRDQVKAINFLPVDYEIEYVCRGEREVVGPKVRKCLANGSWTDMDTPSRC
# Chain of GABABR1b expressed on cells (Q9UBS5 other isoform, or with tags, fused parts or gaps limits assumed): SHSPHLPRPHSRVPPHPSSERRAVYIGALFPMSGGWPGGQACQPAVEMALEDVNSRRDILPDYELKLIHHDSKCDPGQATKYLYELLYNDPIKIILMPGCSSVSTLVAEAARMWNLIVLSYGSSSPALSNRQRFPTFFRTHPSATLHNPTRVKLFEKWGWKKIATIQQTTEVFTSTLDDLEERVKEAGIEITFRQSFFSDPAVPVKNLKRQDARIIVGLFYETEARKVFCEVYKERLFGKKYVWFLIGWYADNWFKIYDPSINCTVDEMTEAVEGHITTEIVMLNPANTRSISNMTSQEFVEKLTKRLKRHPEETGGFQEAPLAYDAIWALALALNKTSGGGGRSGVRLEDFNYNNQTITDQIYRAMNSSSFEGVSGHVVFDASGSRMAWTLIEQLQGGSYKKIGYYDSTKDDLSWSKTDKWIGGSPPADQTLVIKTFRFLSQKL
molecule,measurement,setting,value
"DDSDVWWGGADTDYADG [Peptide 17-mer, DDSDVWWGGADTDYADG]",Ex vivo assay 1 μM (short-term facilitation),"[1]; peptide 1 μM, vs scrambled control peptide, burst of 5 stimuli at 20 Hz, listed as sAPP 17-mer",increased the facilitation
same,Increase in facilitation after preincubation with GABABR antagonist CGP-54626,"[1]; peptide 1 μM, CGP-54626 10 μM preincubation",blocked
same,Ex vivo assay 10 μM (short-term facilitation),"[1]; peptide 10 μM, vs scrambled negative control at 10 μM",statistically significant increase in short-term facilitation
"DDSDVWWGG (also: biotin tag, site not given here, also called biotin-9mer; biotion-9mer) [9-mer tagged with Biotin]",binding result,[2],no binding
DDSDVWWGGADTDYADG [wild-type sAPP 17-mer],IC50,[3],1700 nM
DDSDVWWGG (Unlabelled) [wild-type sAPP 9-mer],IC50,[4],11000 nM
same,Kd,[5],3000 nM
"DDSDVWWGG (also: FITC label, site not given here, also called FITC-9mer) [FITC labelled sAPP 9-mer]",EC50 (read off the curve),[6],~800 nM
same,EC50 (read off the curve),[7],~8000 nM
same,EC50 (read off the curve),[8],~1000 nM
same,EC50 (read off the curve),[9],~4000 nM
same,EC50 (read off the curve),[10],~2000 nM
same,EC50 (read off the curve),[11],~1000 nM

# Source: patent publication US20240376149A1, “Novel Modulators of GABABR1a” (VIB VZW, priority 2021, published 2024)
